Assay results from article PMC3460626.

Molecular target: T1, LasR (Pseudomonas aeruginosa PA14?) (UniProt A0A0H2Z901)
T1 sequence: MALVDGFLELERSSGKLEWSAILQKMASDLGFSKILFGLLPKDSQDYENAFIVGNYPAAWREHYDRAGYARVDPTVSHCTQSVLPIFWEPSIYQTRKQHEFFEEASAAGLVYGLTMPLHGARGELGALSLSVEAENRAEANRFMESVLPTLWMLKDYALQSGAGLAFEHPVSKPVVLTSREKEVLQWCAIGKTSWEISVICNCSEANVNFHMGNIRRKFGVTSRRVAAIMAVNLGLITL
Assay: EMSA
Details: LasR EMSA: 20 mM Tris-HCl pH 7.5, 50 mM KCl, 1 mM EDTA, 1 mM DTT, 100 ug/ml BSA, 10% glycerol, room temp 20 min, 1 pM each specific and nonspecific probe

Sequence	binding
GTCCGGATCCTTCCGTGAAGTGTTTCAAATAGCCAGCATCCCTGGTCGCTGATGTGGATTGCATAAAACACAGAACGCTCGTACCGGCTCAACTACAAGATCTGGTAGGTGCCAGACAGGGTATGCGGGATTGCTAAGCTGATGCTTCCTGCAATGCCGGAGGTTGTAGCCAAGTTGTAATTTTATTCTTTCGGTACGCAGGAAAGAATTCGGAC (double strand) [PA14_09480 (phzA1) promoter]	binds
GTCCGGATCCGTCTACCGCAGGGCATTCCGGCGTTTGTCGCGATCAGGGCGGGGGCATGGTTGCAGAGACGGCGGAAGGCTTCACCTACCACAATTGGCAGAGTCGCGGCGGCGATGCTCCGCGCCGGGTTCAACCGGCTTCGCTGAGTTCGGCGACCACCACTCCGGGAAGGTCTTTCAGCAGTGCCGGGGACAGCAGGAATTCGGAC (double strand) [PA14_34870 promoter]	binds
GTCCGAATTCGCGGCTGAATCCGGCTGGGCAGCTGGCGATCATATCGCCAGCCACCCTGCTGGCCCCCGGCGCAGAGCGGCGCGGCTATGCTCGTGCGCCCGGAACGGCCCTATCCGTTCTGGGAGCTACCCCCTCGCCACCCTCGACTAGCATGACCAGGGAGGCCCGCAGTGGACGCCCAGGGCTAGGAGCCGCAGGCGGATCCGGAC (double strand) [PA14_41500 promoter]	binds
GTCCGGATCCAGTCGCACGGCGACTGCGCCGCCCCCATGGGCGCGGCGAGTCTCTCATCGGACTGAAGGGAGATTATTGGCGAGAGGACTGCGGCGGATAACCTGGCAGAACTGAACGTATCGTTGAATGGAATTCAACGATACCCAAGCCGGGCGGGAATCGCCCGGGCGAGGCCGCGTTCCCGGTGGCCCGCTCCTCGCCGCTAAGCTTGGAC (double strand) [PA14_33890 promoter]	binds more weakly
GTCCGAATTCGGCGGCCCTTTGCCTGCCTCTACCGGCTCACAGTGCGGGTGCCGACCGCTTTGCATTCCGCGACATCCATCAGGAGTGGGTAGCGAATCTGACCGGCCCGTCACATTTGGTAGGGACCTCAAACCGGCACCGAGGGCTAGGATCAGCCCGCTTCGAAATGAATCCGGTTCTGGAAAGGATCCGGAC (double strand) [PA14_53250 (cbpD) promoter]	binds
GTCCGGATCCCGAGGCTCTCCAGAGGAATCCACTGTTGTCTGCCTTATTTTTTATAAATTGTTAACTACCTGTTTTGGTAGGGTTTTCCAAATGGCCATCAATGTCGTTATGATGGCTATAGCCAAGCCGTAAAGGGCATGGACGCAGACGCCTGACGTTTGGCTGAAAATCTTTCATTGGAATTCGGAC (double strand) [lrs2 promoter]	binds
GTCCGAATTCCTTCTGATGCCGGCGCGGGCGCCCGGCCGGTATGGCCGGCAAGCCCGTCGACGGCTGTCCAGCTACCAGATCCGGTAGCCCTGCCAGATTTCGCAGGCGACCAGATCTGGCAGGTTGTTGGGCTCCCGGTGCCATGCAACCTATTACGCCTCTCGCCCCCCACCCGTTCGCGCAGGATCCGGAC (double strand) [PA14_37745 promoter]	binds
GTCCGAATTCGCAATGGCAGACCTTGCCGTTCAGCGACAGGCAGATCGACGCCGACCCGCAACTGCAACGGCTAAGCATTCGCGAATGATAAGCAATGCCTATCAGATCTGATGGGAAAAAAACTGACGGTTTTTCCGCGCTCGTTCGTCTTTAACCATAGAGGCGGCCCACAGCCGCCCGGTTCCAGGGAACACGTGCAGGATCCGGAC (double strand) [PA14_33830 promoter]	binds
GTCCGGATCCGTTGAAGAGTGAAGCCTTTGGGGGAAGGGCCGCCGCGGCGGAATCCAATCCTTCATGTTGCCAGCTTTGGCAGAGGGATGGGGCCGGCGGCGGTTCGCCTTCCTATGTCAGTTTGTCGCAGCGGGCCGGCCCGCCGCGGTTCAGGACCTGTCGCTGGCGGCGATCTTCGCGAATTCGGAC (double strand) [PA14_23220 promoter]	no binding
GTCCGAATTCTTGTTCTATATGTTCGAACTTGGCTTTGCTCGTTGTTTTAATTTTGCGGAATAACCTCTGGAACTATTCATATGAATTTTTGAAAGTTTGGTTTACCTGAGAGATTTATGAGTTGACCTTGTCACGATGGCAGGACTCATGGTTCGCAGGAGTCAACAAACCAGGATCCGGAC (double strand) [PA14_18800 promoter]	binds
GTCCGGATCCGTCCGAACCCATGAGATGGCAAACCAATGACAACCCACTTTGCTCGGCAAATCGCCTCCCAGATCTCACAGTTCGAGGCGCTCGGCCTGGGCTCCACGGGGGCGACGGCATGCCTGGAAGCGAGCGGCCATCCATCGGGCCGATAGCGCTCCACCCCGTCTCGCCTGCCAGAATTCGGAC (double strand) [lrs1 promoter]	binds
GTCCGAATTCCCGTGCTACCCCCGGCAGGCGTAGCCGCGGCAGCCTGCCTCGGCAAAAAGCCATCAGCCGGCGCGCTTCGACGCCCCTCATACCGCCCTTTCGCCAACTACCAATTCTCATAGTTGTGAGGGGAAATTTGTATCTTATTTTAAATACCCACGAAACATATAAAAACACACACAGCGAAACACTTCGGAAACCGGATCCGGAC (double strand) [PA14_48530 promoter]	binds
GTCCGAATTCTGGATCGTTTCGTCACAGGAAACGCTGGAGCGCCTATTCCAGAGCGCTTCGAACAATCGGTAAAAATAAAATCCAAATAATCAGACGCAGTTCAAAAACAACCAGAACAGATAGTTTTTCCGCCTTTCCCAACATGCTCCTCTCGCCTTGACTCGTTCGATGCAGCGGATCGCCCATGCGTATGTCCGGCATTGGATCCGGAC (double strand) [PA14_07430 promoter]	binds
GTCCGAATTCCCGGGAAGCGCCCTGTGACGGACTTCGAATCCTTGCGTCGCGCTCCGTCCTCCGGATTGAGCGGCGCGCTGCGGCGGCCGCGCTCCGGCGCAGCGCCACTGCCAGATCTGGCAGTTGTCGCTGGCGGGGACGGAGGTTTTAGTAGCCGCACTTTTTTCCAGGGCCGGGCAGTGGATCCGGAC (double strand) [PA14_40310 promoter]	binds
GTCCGAATTCGTGGAGGATCGCGTCGCGCAGCTGGCGATAGAGCTGGCCGACCAGGTCGTGGCGGCCGTCGAGGATCAGTTGCAGTTCCATGGCGAAATTGGCTACCTGGTATTTCTGGTAATTGGCTCTTCGTGGAAGCCAAAGGCAGGCTTAGTGTTACCCCATGCCGCGCCGCTTTCCACTCTCGCGGCTGCCAATCAGCCGGATCCGGAC (double strand) [PA14_03490 promoter]	binds
